# Test results as given in patent US20250064929A1 (UPSTREAM BIO, published 2025).
# T1: human TSLP receptor (TSLP-R) (human, UniProt Q9HC73 23-371)
# T1 sequence (looked up): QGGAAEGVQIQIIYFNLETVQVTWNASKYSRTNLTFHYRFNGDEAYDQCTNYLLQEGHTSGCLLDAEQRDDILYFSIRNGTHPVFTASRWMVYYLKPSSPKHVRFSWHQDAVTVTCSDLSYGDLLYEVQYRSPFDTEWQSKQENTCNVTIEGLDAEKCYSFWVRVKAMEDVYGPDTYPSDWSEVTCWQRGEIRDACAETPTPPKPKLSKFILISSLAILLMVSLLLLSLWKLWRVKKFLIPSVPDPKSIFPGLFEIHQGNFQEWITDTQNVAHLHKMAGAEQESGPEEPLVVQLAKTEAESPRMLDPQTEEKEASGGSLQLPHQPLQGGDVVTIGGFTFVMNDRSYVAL
# B1: TRAB-1 antibody (anti-TSLP-R antibody) (antibody, human IgG1, kappa, V domains shown)
# VH: EVQLLESGGGLVQPGGSLRLSCAASGFTFRSSAMHWVRQAPGKGLKWVSSVSGSGAGTYYADSVKGRFTISRDNPKNTLYLQMNSLRAEDTAVYYCVKEGGSRGFDYWGQGTLVTVSS
# VL: DIQMTQSPSSLSASVGDRVTITCRASQDISNYLAWFQQKPGKAPKSLIYTASSLQSGVPSKFSGSGSGTDFTLTISSLQPEDFATYYCQQYNLYPPTFGQGTKVEIKR
# Columns and labels:
# [1] = biological target: T1, human TSLP receptor (TSLP-R); assay: cell-based or functional assay
# [2] = biological target: T1, human TSLP receptor (TSLP-R); assay: cell-based or functional assay; remark: listed apart in the source
binder,measurement,setting,value
B1,"IC50 (ng/mL), cell proliferation of Ba/F3 cells transfected with human TSLP-R/IL-7Rα",[1],90.7 ng/mL
same,"IC50 (ng/mL), CCL17 production in dendritic cells",[2],16.1 ng/mL
